From publication PMC4357707 (Nucleic Acids Research, 2015) come the findings set out here.

For data set [1], the target named is T1, HEN1-R^1LR^2 (His-tagged, residues 1–519) (Arabidopsis thaliana, UniProt Q9C5Q8 1-519).
T1 sequence (looked up): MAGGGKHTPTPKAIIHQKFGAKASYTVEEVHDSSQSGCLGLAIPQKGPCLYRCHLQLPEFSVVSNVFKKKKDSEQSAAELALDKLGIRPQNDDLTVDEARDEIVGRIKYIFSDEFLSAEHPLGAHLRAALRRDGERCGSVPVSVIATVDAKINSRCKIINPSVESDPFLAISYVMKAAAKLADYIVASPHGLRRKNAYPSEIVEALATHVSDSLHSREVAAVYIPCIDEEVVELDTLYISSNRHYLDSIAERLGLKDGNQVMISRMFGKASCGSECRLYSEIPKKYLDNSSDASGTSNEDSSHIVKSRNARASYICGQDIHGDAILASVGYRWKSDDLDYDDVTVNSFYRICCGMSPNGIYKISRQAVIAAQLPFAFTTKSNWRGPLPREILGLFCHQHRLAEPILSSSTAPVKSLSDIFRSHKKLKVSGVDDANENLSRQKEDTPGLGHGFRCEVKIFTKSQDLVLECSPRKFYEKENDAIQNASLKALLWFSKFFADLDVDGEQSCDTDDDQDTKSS
The data set can be described thus: pull-down.

The next data set addresses T2, HEN1 Δ38-45 (Arabidopsis thaliana, UniProt Q9C5Q8 1-37+=G+46-942, internal_change).
T2 sequence: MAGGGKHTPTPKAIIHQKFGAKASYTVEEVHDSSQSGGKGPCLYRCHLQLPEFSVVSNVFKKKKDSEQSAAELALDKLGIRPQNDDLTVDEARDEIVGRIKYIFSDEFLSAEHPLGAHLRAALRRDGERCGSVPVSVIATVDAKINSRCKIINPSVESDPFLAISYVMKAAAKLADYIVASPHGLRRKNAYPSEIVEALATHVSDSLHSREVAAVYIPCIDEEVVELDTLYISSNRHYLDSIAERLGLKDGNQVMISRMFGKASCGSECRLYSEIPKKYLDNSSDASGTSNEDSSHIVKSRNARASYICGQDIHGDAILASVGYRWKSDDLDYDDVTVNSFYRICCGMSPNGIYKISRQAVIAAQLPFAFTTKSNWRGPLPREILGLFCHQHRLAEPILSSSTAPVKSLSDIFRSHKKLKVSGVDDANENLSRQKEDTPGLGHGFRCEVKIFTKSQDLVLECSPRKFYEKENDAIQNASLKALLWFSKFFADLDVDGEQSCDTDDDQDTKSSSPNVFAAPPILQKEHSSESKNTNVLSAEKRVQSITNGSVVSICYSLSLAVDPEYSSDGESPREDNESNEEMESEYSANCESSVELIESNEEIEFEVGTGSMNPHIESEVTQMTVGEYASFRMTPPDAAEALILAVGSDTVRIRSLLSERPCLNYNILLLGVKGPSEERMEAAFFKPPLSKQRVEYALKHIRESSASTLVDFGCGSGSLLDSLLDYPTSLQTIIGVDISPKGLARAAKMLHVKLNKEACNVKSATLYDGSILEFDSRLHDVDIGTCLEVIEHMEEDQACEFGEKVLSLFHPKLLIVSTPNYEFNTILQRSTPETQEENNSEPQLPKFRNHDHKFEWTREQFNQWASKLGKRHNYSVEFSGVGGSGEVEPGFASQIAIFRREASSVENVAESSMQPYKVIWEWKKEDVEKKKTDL
Put plainly: EMSA.

The target in a further data set is T3, HEN1 wt (Arabidopsis thaliana, UniProt Q9C5Q8 1-942).
T3 sequence: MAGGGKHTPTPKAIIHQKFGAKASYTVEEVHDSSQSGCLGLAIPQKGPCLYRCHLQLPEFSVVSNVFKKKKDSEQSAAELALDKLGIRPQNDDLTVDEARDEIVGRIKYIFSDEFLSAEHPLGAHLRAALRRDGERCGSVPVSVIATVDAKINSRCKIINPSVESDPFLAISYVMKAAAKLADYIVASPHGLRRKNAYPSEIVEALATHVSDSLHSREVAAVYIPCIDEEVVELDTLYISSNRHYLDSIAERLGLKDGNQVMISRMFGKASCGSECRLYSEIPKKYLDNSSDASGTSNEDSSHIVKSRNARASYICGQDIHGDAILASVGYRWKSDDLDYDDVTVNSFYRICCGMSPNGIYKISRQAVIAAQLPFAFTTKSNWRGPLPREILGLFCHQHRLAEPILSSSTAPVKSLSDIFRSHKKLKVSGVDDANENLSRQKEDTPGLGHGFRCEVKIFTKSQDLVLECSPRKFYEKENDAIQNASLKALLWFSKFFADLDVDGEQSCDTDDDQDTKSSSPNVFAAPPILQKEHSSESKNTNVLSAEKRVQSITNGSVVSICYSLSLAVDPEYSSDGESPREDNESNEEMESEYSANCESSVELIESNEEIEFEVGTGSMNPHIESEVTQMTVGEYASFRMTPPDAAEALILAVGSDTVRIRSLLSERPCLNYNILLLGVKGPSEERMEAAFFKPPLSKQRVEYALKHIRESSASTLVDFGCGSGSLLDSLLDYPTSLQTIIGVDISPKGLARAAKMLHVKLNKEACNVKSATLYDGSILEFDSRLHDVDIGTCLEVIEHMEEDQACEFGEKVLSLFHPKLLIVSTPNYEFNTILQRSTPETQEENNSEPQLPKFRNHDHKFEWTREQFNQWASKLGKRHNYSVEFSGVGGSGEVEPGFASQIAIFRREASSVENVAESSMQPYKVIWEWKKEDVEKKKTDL
The data set can be described thus: EMSA.

In data set [2] the target is T4, HEN1-RHK389,397,477AAA (Arabidopsis thaliana, UniProt Q9C5Q8 1-942, R389A;H397A;K477A).
T4 sequence: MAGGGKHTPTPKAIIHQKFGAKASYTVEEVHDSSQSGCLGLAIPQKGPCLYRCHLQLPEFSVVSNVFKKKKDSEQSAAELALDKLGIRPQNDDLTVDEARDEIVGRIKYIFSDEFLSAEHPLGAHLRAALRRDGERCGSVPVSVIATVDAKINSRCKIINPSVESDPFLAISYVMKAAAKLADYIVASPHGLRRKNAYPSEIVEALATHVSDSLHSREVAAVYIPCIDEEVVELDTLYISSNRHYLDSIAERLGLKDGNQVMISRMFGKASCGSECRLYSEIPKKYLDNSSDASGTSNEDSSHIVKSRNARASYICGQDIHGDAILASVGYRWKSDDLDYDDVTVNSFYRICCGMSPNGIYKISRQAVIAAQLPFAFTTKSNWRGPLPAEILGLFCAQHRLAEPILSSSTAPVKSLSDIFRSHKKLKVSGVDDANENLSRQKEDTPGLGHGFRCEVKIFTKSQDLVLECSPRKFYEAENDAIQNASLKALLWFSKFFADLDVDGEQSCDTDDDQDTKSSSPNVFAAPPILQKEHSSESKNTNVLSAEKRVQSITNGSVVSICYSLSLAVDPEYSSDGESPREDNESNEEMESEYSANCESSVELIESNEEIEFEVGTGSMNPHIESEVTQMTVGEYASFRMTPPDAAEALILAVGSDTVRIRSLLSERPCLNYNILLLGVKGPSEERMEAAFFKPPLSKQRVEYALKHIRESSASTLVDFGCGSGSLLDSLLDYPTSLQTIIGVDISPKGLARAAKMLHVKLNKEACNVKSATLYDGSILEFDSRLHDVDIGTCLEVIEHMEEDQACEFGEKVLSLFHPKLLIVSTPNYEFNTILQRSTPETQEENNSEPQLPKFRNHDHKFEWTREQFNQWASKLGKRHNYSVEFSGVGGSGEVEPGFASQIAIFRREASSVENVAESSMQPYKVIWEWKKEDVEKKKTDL
Put plainly: EMSA. On the technique in general: Mobility shift assays separate free from complexed probe on a gel.

The target in data set [3] is T4, HEN1-RHK389,397,477AAA. The data set can be described thus: EMSA. This is another data set of the same source.
A further data set addresses T5, HYL1 (Arabidopsis thaliana, UniProt O04492 1-419).
T5 sequence: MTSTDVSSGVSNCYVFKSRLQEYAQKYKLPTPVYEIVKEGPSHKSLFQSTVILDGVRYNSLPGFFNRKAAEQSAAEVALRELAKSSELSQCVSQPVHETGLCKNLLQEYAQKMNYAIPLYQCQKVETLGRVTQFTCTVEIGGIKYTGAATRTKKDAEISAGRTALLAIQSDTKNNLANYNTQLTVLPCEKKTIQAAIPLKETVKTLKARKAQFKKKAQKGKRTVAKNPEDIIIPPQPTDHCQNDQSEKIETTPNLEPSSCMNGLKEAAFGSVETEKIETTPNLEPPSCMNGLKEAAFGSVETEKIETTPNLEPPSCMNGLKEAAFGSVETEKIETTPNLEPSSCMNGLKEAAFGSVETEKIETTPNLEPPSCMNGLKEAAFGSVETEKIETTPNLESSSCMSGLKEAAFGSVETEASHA
Put plainly: EMSA.

A further data set addresses T6, HEN1 wt;HYL1 (Arabidopsis thaliana;Arabidopsis …, UniProt Q9C5Q8;O04492 1-942;1-419, |).
T6 sequence 1: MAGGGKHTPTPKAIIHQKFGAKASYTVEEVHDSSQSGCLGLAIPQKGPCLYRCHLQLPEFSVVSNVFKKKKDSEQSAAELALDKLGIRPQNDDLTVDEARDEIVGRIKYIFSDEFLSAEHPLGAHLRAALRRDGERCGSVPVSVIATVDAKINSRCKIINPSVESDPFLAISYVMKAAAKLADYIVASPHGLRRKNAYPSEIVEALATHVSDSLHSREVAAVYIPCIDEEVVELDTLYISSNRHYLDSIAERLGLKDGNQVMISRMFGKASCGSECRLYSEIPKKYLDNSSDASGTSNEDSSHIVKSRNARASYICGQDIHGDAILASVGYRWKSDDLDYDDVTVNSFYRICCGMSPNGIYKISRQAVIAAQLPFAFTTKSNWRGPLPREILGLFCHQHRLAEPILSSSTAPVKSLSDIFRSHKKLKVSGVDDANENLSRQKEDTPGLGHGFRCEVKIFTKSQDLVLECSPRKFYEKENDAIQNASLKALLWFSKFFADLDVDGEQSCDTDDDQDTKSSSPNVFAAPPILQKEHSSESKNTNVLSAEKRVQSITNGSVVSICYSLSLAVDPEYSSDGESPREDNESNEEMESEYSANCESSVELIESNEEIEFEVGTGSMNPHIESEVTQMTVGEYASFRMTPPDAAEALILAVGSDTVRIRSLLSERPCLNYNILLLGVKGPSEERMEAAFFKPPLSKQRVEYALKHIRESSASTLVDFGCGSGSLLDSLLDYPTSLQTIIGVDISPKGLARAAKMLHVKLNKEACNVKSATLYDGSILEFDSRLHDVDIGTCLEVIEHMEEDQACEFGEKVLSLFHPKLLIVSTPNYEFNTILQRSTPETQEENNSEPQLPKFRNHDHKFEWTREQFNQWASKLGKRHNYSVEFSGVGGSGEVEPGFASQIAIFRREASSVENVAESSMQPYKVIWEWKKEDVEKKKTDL
T6 sequence 2: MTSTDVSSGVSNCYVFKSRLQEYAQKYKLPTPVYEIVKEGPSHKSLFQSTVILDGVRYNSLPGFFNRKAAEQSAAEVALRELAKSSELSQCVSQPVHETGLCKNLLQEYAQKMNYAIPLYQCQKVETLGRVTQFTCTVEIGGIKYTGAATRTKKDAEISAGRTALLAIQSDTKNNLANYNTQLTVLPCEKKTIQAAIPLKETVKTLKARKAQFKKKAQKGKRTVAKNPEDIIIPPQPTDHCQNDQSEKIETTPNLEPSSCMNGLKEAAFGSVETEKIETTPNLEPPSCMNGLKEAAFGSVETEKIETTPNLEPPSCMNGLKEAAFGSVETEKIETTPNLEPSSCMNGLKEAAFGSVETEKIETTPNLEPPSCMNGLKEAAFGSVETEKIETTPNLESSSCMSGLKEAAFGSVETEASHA
Put plainly: EMSA.

B1: GST-HYL1 (GST-fused full-length HYL1) (natural protein, UniProt O04492 1-419, looked up)
chain: MTSTDVSSGVSNCYVFKSRLQEYAQKYKLPTPVYEIVKEGPSHKSLFQSTVILDGVRYNSLPGFFNRKAAEQSAAEVALRELAKSSELSQCVSQPVHETGLCKNLLQEYAQKMNYAIPLYQCQKVETLGRVTQFTCTVEIGGIKYTGAATRTKKDAEISAGRTALLAIQSDTKNNLANYNTQLTVLPCEKKTIQAAIPLKETVKTLKARKAQFKKKAQKGKRTVAKNPEDIIIPPQPTDHCQNDQSEKIETTPNLEPSSCMNGLKEAAFGSVETEKIETTPNLEPPSCMNGLKEAAFGSVETEKIETTPNLEPPSCMNGLKEAAFGSVETEKIETTPNLEPSSCMNGLKEAAFGSVETEKIETTPNLEPPSCMNGLKEAAFGSVETEKIETTPNLESSSCMSGLKEAAFGSVETEASHA
For B1, the binding result in data set [1] is on record as “binds”.

B2: miR173CH3/miR173*CH3 (dsRNA)
RNA 1: UUCGCUUGCAGAGAGAAAUCAC
RNA 2: GAUUCUCUGUGUAAGCGAAAG
modifications: 2'-O-methyl on 3'-terminal nucleotide of both strands
One may read the Kd as the equilibrium constant for the complex coming apart. The low end stands for a tighter complex, the high end for a looser complex. Regarding B2, the results for the Kd with HEN1 Δ38-45 and in the data set with HEN1 wt were 2.1 ± 0.1 nM and 7.2 ± 0.1 nM, respectively. Besides, in the data set with HEN1-RHK389,397,477AAA [2], the binding result is given as “no binding”.

B3: siR173/siR173* (dsRNA)
RNA 1: UUAACGCUUGCAGAGAGAAUCAC
RNA 2: GAUUCUCUCUGCAAGCGUUAAAG
Consider B3, for which binding with HEN1-RHK389,397,477AAA [3] was characterised by a dissociation constant (Kd) of 293 ± 27 nM. In addition, the binding result with HYL1 and in the data set with HEN1 wt;HYL1 was “binds” each time.
